Laboratory results as given in patent US20080193426A1, “MIGRATION OF HEMATOPOIETIC STEM CELLS AND PROGENITOR CELLS TO THE LIVER” (YEDA RESEARCH AND DEVELOPMENT CO., LTD., priority 2001, published 2008).

Target: T1, CXCR4 (Homo sapiens, UniProt P61073)
T1 construct: homing of human CD34+ enriched MPB cells to the liver of NOD/SCID mice; endogenous in cells; host or cells: CD34+ enriched mobilized peripheral blood cells, thawed and incubated overnight with SLF, transplanted into non-irradiated NOD/SCID mice
Experiment: Homing of human CD34+ enriched MPB cells to the liver of non-irradiated NOD/SCID mice, SDF-1 injected into the liver
Assay type: in vivo
Conditions: for homing of human stem cells and progenitor cells to the liver (in words): SDF-1 injected into the liver
Description: The following experiment was carried out in order to test whether homing of human CD34+ enriched MPB cells to the liver of NOD/SCID mice requires high concentrations of human SDF-1 in the liver.
Frozen […] mobilized peripheral blood (MPB) CD34+ cells were thawed, and incubated at 37° C. over night with 50 ng/ml SLF for recovery. In contrast to the experiment described in example 1, this experiment was carried out with non irradiated mice (not pre-conditioned) and also in non-irradiated mice in which human SDF-1 has been injected directly into the liver immediately prior transplantation. Briefly, non-irradiated NOD/SCID mice were anaesthetized and 1 microgram SDF-1 (in 50 microliter PBS) were injected into the right lobe of the liver. Next, treated and control mice were transplanted intravenously with 8×10^5 CD34+ MPB enriched cells. In one group, CD34+ cells were incubated for 30 min. (4° C.) with 10 micrograms of neutralizing anti-human CXCR4 mAb (12G5), and co-transplanted without washing. Four hours later, the injected lobe was harvested, a single cell suspension was prepared and introduced to flow cytometry analysis, using human specific anti CD34-FITC and anti CD38-PE mAb. Injection of SDF-1 to the liver creates a positive gradient in the liver and a negative gradient in the blood. Since this gradient is maintained for about 4 hours only, therefore the mice were sacrificed and homing was tested rapidly, four hours after cell injection.

T1 sequence (P61073 whole entry): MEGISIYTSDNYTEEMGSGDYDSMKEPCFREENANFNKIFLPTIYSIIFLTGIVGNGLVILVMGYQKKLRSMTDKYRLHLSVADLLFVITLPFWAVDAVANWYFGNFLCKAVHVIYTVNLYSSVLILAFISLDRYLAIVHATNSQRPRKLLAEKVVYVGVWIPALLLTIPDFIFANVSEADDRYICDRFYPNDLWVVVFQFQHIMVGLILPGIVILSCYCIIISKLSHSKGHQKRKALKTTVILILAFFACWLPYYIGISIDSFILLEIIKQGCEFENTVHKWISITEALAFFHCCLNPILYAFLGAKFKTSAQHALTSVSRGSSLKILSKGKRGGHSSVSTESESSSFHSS

Number of human cells in the liver per 1 × 10^6 total aquired cells (1 microgram SDF-1 into right liver lobe, 8×10^5 CD34+ MPB cells IV, 12G5 10 micrograms, four hours, flow cytometry): 38 | % (number of human cells in the liver, SDF-1 group = 100) (1 microgram SDF-1 into right liver lobe, four hours after cell injection): 100% | homing of human stem cells and progenitor cells to the liver (in words) (four hours after cell injection): improves significantly
Substance: SDF-1: human SDF-1, CXC chemokine and ligand of CXCR4, injected directly into the liver
homing of human stem cells and progenitor cells to the liver (in words) (four hours after cell injection, listed as human SDF-1): a considerable number of human stem cells and progenitor cells were observed
